These results are taken from article doi:10.1101/2022.06.09.495453.

The experiment deals with SHLD2^1-95 (human). In words: SEC-MALS. On the technique in general: In gel filtration, larger molecules generally elute earlier.

REV7 of the SHLD3-SHLD2^1-95-REV7 ternary complex (Shieldin), sequence (Q9UI95 whole entry, one chain of several): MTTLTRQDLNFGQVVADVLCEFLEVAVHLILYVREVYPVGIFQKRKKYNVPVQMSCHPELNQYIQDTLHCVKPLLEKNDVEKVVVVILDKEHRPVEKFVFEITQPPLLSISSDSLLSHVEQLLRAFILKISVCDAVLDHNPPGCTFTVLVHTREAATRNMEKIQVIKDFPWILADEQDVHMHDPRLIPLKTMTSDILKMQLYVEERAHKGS

With “REV7 of the SHLD3-SHLD2^1-95-REV7 ternary complex (Shieldin) (from UniProt Q9UI95 1-211) (natural protein)”, the stoichiometry N (REV7 per SHLD2^1-95) amounted to 2.
